This is an account of results in article PMC8575140 (bioRxiv, 2021).

What is called IC50 is the concentration that gives 50% inhibition.

In this assay the target is SARS-CoV-2 receptor-binding domain (SARS-CoV-2, UniProt P0DTC2).

B1: NCI-CoV-1B5 VHH (VHH)
VHH: DVQLVESGGGSVQAGGSLRLSCTGSRYTYSTYCMGWFRQAPGKEEEAVAIINSGGGEPYYGDSVKGRFTISQDRAKNTVYLQMDGLQPDDTAIYYCVAADSHNSRCYLGRSYVNYWGQGTQVTVSS
As to B1, the concentration for half-maximal inhibition (IC50) stood at 3.2 nM.
